In patent US12702697B2, “Compositions and methods for treatment of headache disorders and neuropathic pain” (Washington University, priority 2019, dated 2026):

What was measured:
Treg cells = assay: Flow cytometry of T-cell subsets in peripheral blood, cervical LNs and spleen; assay type: in vivo, mouse
Source text: Blood, spleen, and cervical lymph node cell preparation, antibody staining, flow cytometry, and enzyme-linked immunosorbent assay (ELISA). Adult male DEREG and C57BL/6J mice received 15 daily injections of saline or IL2. About […] blood was collected from each mouse by submandibular bleeding. Mice used for blood collection were not used in the behavioral tests. Spleen and cervical LN tissues were ground and filtered through a sterile […] cell strainer. After lysis of red blood cells (420301; Biolegend), cells were pelleted and resuspended for antibody staining, ELISA, and ELISPOT assay. Live cells were counted by the Vi-CELL Automated Cell Viability Analyzer (Beckman, Chaska, MN).
About 2×10^6 suspension cells were stained with the following antibodies from Biolegend that recognizes mouse CD3e (clone 145-2C11), CD4 (clone GK1.5 and RM4-5), CD8 (clone 53-6.7), and CD25 (clone PC61). The percentages of individual cell phenotypes were determined using flow cytometric analysis. Data were collected with FACScan (Becton Dickinson, Franklin Lakes, NJ) and analyzed with CellQuest Pro (Becton Dickinson) and Rainbow X Alias (Cytek) softwares.

[1] = tested on: sumatriptan-induced cutaneous hypersensitivity in mice; assay: Mouse model of medication overuse headache (repeated sumatriptan); assay type: in vivo
Experimental: Mouse model of medication overuse headache. After measuring baseline nociceptive responses, mice received daily i.p. injections of sumatriptan succinate (0.6 mg/kg; Fresenius Kabi, Lake Zurich, IL44). Daily ld-IL2 or saline were administered after mice received 2 sumatriptan injections. Facial and hindpaw mechanical thresholds were measured every 2 days. Note that on the days that the mouse behaviors were tested, sumatriptan and/or IL2 were always injected after completing the behavioral tests.
Responses to mechanical stimuli on the hindpaw. Mice were habituated in individual clear plexiglass boxes (11×11×15 cm) for 1 to 2 hours. A series of calibrated von Frey filaments was used to apply mechanical stimuli to the plantar surface of the hindpaws. The up-down paradigm was used to determine the 50% withdrawal threshold. The thresholds for both hindpaws were averaged to yield a single value for each mouse.
Withdrawal responses to facial mechanical stimuli. The hair on mouse forehead (above and between 2 eyes) was shaved the day before testing. On the test day, the experimenter gently held the mouse on the palm with minimal restraint and applied the calibrated von Frey filament perpendicularly to the shaved skin, causing the filament to bend for 5 seconds. A positive response was determined by the following criteria as previously described: mouse vigorously stroked its face with the forepaw, head withdrawal from the stimulus, or head shaking (Elliott M B et al., Headache 2012; 52:966-84). The up-down paradigm was used to determine the 50% withdrawal threshold.

[2] = tested on: SNI-induced punctate and dynamic allodynia in mice; assay: Mouse model of spared nerve injury (SNI): punctate (von Frey) and dynamic (brush) allodynia; assay type: in vivo
Source text: Mouse model of SNI. Mice were anesthetized with 3-4% isoflurane in an induction chamber until losing the righting reflex. Anesthesia was maintained by 1.5-2% isoflurane through a nose cone. After skin and muscle incision to expose the right sciatic nerve in the thigh region, we tightly ligated two branches (sural and common peroneal nerves) with 7-0 silk suture (Braintree Scientific, Braintree, MA) and transected ~2 mm of the nerve distal to the ligature. The third branch of the sciatic nerve (tibial nerve) was left intact, and caution was taken not to stretch or contact the spared nerve. In sham mice the right sciatic nerve and its branches were exposed but were not touched. After the surgery, the overlying muscle and skin layers were closed separately with 6-0 vicryl suture and interrupted nylon suture for the skin incision, respectively.
Response to punctate mechanical stimuli on the hindpaw. Mice were habituated in individual clear plexiglass boxes (11×11×15 cm) for 1-2 hours. A series of calibrated von Frey filaments were used to apply mechanical stimuli to the medial plantar surface of the hindpaw (the tibial nerve territory). We used the up-down paradigm to determine the 50% withdrawal threshold.
Response to dynamic mechanical stimuli on the hindpaw. Mice were habituated in individual clear plexiglass boxes (11×11×15 cm) for 1-2 hours. The medial plantar surface of the hindpaw (tibial nerve territory) was stimulated by light stroking with a blunt paintbrush (5/0, Princeton Art & Brush Co., Princeton, NJ) from heel to toe at ~2 cm/second. The behavior was scored as described previously. Score 0 indicates no evoked movement or lifting the stimulated paw for less than 1 second. Score 1 indicates a sustained lifting (more than 2 seconds) of the stimulated paw toward the body or a single gentle flinching of the stimulated paw. Score 2 indicates a strong lateral lift of the stimulated paw above the level of the body or a startle-like jump. Score 3 indicates multiple flinching or licking of the stimulated paw. Each paw was tested 3 times, with minimal interval of 3 minutes. The scores of 3 tests were averaged to indicate the response to dynamic mechanical stimuli.
Ld-IL2 treatment. Recombinant mouse IL2 (carrier-free, Biolegend, San Diego, CA) was freshly diluted from the stock (0.5-1 mg/ml aliquots at −80° C.) every day. Each mouse received daily intraperitoneal (i.p.) injection of 1 μg IL2 in 100 μl saline at various durations. The control mice received daily i.p. injections of 100 μl saline. Note that on the days that the mouse behaviors were tested, IL2 was always injected after completing the behavioral tests. […]

[3] = human, in vivo; cited from earlier work
[4] = 15 days of ld-IL2, C57BL/6J males

B1: ld-IL2: Recombinant mouse IL2 (carrier-free; Biolegend), given as daily low-dose i.p. injection (protein, UniProt P04351 21-169, looked up)
Interleukin-2: APTSSSTSSSTAEAQQQQQQQQQQQQHLEQLLMDLQELLSRMENYRNLKLPRMLTFKFYLPKQATELKDLQCLEDELGPLRHVLDLTQSKSFQLEDAENFISNIRVTVVKLKGSDNTFECQFDDESATVVDFLRRWIAFCQSIISTSPQ
Treg cells; 15 daily ld-IL2 injections, male DEREG mice
  percentage of EGFP+ Treg cells in the cervical LNs: increased significantly
Treg cells; [4]
  number and frequency of CD25+CD4+ Treg cells in the spleen: doubled
  number of CD8+ cells in the spleen: increased only slightly
Treg cells; after 5 daily ld-IL2 injections i.p., male DEREG mice
  increase of the frequency of EGFP+ Treg cells in the peripheral blood: more than 100%
Treg cells; daily ld-IL2, 15 days
  frequencies of CD4+ and CD3+ T cells in the blood or LNs: not altered
[1]; after 4 to 6 ld-IL2 injections (day 7-9)
  sumatriptan induced cutaneous hypersensitivity: significantly attenuated
[1]; after 8 days of IL2 treatment (day 11)
  sumatriptan induced cutaneous hypersensitivity: completely reversed
[1]; continuous ld-IL2 (day 13)
  cutaneous hypersensitivity in response to subsequent sumatriptan injections: neither male nor female mice developed cutaneous hypersensitivity
[2]; 3-week ld-IL2 started 7 days post-SNI, ipsilateral paw
  days of ld-IL2 treatment after which the mechanical threshold started to reverse: 3 days
[2]; 5 days of ld-IL2 injections before SNI, female Swiss Webster
  basal punctate and dynamic mechanical sensitivity: not altered
[2]; after 7 days of IL2 treatment (day 14-28)
  mechanical threshold of SNI+IL2 versus sham+IL2 group: not different
[2]; after 7 days of IL2 treatment (day 15-29)
  dynamic allodynia: completely reversed
[2]; delayed ld-IL2
  integrated AOC of withdrawal threshold between day 10 and 28 post-SNI versus SNI+saline: significantly lower
[2]; delayed ld-IL2, between day 10 and 28 post-SNI
  integrated AOC of dynamic allodynia score versus SNI+saline: significantly lower
[2]; ld-IL2
  responses to brush stimuli of the contralateral paw and of sham mice: did not change
[2]; ld-IL2 1 μg/mouse/day i.p. from 5 days before to 21 days post-SNI (saline: threshold about 20% of baseline)
  SNI-caused reduction of the withdrawal threshold: 50%
[2]; ld-IL2, SNI mice
  mechanical threshold of the contralateral (left) paw: did not change
[2]; ld-IL2 pretreatment
  development of hyper-sensitivity to brush stimuli (dynamic allodynia): prevents the development
  magnitude of punctate allodynia (AOC day 0 to day 22 post-SNI): significantly attenuated
[3]
  tolerability in patients: well tolerated
